Values quoted from earlier work in paper PMC7295915.

How the values were obtained:
[1] = target: CD48 (Homo sapiens) (UniProt P09326)
[2] = target: CD80 (Homo sapiens) (UniProt P33681)
[3] = target: CD40L (Homo sapiens) (UniProt P29965)
[4] = target: ICAM-1 (Homo sapiens) (UniProt P05362)
Chain of ICAM-1 (Homo sapiens) (P05362 28-480): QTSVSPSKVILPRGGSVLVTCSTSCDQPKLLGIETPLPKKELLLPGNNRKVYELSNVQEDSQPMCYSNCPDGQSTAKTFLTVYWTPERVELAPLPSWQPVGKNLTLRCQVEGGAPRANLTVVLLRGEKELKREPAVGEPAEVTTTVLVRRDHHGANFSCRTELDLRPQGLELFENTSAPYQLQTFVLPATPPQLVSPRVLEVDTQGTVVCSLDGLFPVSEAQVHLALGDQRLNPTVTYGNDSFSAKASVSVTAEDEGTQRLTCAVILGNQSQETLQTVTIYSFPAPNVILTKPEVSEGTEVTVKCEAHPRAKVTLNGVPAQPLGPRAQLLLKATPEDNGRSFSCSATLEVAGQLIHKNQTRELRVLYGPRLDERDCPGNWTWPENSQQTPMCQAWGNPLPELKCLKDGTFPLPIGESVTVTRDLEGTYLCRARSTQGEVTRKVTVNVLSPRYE

Chain of CD2 (P06729 25-209): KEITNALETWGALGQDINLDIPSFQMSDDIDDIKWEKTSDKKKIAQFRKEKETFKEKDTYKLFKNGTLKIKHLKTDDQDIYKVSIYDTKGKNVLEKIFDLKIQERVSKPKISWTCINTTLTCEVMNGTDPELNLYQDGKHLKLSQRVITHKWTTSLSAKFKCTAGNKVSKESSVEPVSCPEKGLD
Chain of LFA-1 (P20701 26-1090): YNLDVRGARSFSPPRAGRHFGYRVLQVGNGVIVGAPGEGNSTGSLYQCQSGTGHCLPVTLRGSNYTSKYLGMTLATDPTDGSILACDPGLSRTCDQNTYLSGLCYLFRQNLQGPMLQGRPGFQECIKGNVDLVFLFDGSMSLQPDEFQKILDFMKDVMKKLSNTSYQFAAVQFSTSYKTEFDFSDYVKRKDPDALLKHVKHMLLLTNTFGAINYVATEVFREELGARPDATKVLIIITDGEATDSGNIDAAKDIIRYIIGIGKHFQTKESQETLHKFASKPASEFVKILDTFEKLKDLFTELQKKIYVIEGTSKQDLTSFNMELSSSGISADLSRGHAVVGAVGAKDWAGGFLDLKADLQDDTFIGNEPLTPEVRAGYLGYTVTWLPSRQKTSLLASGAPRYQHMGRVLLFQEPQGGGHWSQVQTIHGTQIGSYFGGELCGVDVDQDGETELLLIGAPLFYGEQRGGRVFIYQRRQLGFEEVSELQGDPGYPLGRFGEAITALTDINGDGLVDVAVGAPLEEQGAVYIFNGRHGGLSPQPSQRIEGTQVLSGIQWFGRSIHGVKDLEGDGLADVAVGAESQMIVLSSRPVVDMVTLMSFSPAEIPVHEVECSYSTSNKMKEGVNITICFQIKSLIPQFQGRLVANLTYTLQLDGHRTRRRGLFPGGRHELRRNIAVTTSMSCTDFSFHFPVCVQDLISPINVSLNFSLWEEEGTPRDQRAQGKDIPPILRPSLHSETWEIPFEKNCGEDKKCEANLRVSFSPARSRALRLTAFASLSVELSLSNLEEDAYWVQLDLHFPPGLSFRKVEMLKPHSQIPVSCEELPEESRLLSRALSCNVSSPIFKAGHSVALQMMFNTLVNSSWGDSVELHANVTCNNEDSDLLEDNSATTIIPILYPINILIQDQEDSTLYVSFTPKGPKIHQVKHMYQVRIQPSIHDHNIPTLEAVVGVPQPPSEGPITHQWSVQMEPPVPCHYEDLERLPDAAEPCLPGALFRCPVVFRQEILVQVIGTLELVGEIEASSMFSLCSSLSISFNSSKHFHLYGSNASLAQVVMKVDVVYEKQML
Chain of LFA-1 (P05107 23-700, further chain): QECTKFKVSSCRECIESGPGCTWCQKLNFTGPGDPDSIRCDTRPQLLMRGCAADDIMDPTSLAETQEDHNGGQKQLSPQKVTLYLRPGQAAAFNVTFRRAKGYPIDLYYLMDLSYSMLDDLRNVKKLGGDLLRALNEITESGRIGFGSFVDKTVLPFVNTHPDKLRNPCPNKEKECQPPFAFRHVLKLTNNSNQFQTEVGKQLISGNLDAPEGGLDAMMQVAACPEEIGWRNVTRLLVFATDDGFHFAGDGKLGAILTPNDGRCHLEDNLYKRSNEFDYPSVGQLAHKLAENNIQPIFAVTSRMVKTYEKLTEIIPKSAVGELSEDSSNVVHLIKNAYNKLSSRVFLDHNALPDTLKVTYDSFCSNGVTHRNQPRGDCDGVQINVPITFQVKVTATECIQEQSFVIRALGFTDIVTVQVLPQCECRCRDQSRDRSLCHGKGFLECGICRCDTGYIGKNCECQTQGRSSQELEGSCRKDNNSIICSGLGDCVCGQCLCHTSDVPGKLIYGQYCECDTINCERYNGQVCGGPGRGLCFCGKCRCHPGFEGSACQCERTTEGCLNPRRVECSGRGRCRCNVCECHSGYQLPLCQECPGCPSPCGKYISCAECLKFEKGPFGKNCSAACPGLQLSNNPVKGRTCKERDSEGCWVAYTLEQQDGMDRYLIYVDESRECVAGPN
Chain of CD40 (P25942 21-277): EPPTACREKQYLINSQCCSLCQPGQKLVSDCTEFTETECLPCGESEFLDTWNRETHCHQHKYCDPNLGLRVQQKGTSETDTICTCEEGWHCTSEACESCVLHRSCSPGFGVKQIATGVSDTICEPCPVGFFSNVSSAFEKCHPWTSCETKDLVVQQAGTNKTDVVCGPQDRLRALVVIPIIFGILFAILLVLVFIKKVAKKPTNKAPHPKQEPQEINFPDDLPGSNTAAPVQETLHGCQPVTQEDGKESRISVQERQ
Chain of CD48 (Homo sapiens) (P09326 27-220): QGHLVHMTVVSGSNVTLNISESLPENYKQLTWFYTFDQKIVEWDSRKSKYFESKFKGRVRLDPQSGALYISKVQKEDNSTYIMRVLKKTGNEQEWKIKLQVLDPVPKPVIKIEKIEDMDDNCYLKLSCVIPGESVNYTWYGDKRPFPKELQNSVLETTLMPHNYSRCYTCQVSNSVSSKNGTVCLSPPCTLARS
Chain of CD80 (Homo sapiens) (P33681 35-242): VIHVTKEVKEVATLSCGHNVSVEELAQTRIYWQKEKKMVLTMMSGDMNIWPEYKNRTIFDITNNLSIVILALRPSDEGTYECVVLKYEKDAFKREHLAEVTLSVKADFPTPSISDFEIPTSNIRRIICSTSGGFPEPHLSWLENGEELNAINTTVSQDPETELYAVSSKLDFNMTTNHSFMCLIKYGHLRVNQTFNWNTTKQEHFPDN
Chain of CD40L (Homo sapiens) (P29965 113-261): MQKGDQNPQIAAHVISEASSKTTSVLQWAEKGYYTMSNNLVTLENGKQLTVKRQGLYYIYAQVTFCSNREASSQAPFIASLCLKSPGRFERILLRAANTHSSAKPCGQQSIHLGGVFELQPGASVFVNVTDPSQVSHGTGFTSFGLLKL

For CD2 (from UniProt P06729), the Kd [1] is given as 100000 nM.
For CD28 (from UniProt P10747), the Kd [2] is given as 4000 nM.
In the case of CD40 (from UniProt P25942), the Kd [3] is listed as 200 nM.
For LFA-1 (from UniProt P20701), the Kd [4] is listed as 500 nM.
